This note sets out measurements from paper PMC3954644 (Biochemistry, 2014).

Series [1] concerns the molecule itself. Nature of the series: crystal structure.
Series [2] concerns the molecule itself. Nature of the series: AUC.

B1: human Δ1-pyrroline-5-carboxylate dehydrogenase (HsP5CDH, ALDH4A1), residues 18-563, tag-free (enzyme, UniProt P30038 18-563, looked up)
chain: TGAGLRWKHTSSLKVANEPVLAFTQGSPERDALQKALKDLKGRMEAIPCVVGDEEVWTSDVQYQVSPFNHGHKVAKFCYADKSLLNKAIEAALAARKEWDLKPIADRAQIFLKAADMLSGPRRAEILAKTMVGQGKTVIQAEIDAAAELIDFFRFNAKYAVELEGQQPISVPPSTNSTVYRGLEGFVAAISPFNFTAIGGNLAGAPALMGNVVLWKPSDTAMLASYAVYRILREAGLPPNIIQFVPADGPLFGDTVTSSEHLCGINFTGSVPTFKHLWKQVAQNLDRFHTFPRLAGECGGKNFHFVHRSADVESVVSGTLRSAFEYGGQKCSACSRLYVPHSLWPQIKGRLLEEHSRIKVGDPAEDFGTFFSAVIDAKSFARIKKWLEHARSSPSLTILAGGKCDDSVGYFVEPCIVESKDPQEPIMKEEIFGPVLSVYVYPDDKYKETLQLVDSTTSYGLTGAVFSQDKDVVQEATKVLRNAAGNFYINDKSTGSIVGQQPFGGARASGTNDKPGGPHYILRWTSPQVIKETHKPLGDWSYAYMQ
What is called stoichiometry N is the number of molecules, sites or subunits per partner or assembly. Take B1: the “stoichiometry N” value in series [1] was found to be 2.

B2: Put2p mutant W193A, residues 23-575, His tag removed (enzyme, S. cerevisiae, UniProt P07275 23-575, looked up)
chain: KPPKHIRNEPVKPFRNIDLKDWDLLRASLMKFKSSSLEVPLVINGERIYDNNERALFPQTNPANHQQVLANVTQATEKDVMNAVKAAKDAKKDWYNLPFYDRSAIFLKAADLISTKYRYDMLAATMLGQGKNVYQAEIDCITELSDFFRYYVKYASDLYAQQPVESADGTANKAEYRPLEGFVYAVSPFNFTAIAANLIGAPALMGNTVVWKPSQTAALSNYLLMTVLEEAGLPKGVINFIPGDPVQVTDQVLADKDFGALHFTGSTNVFKSLYGKIQSGVVEGKYRDYPRIIGETGGKNFHLVHPSANISHAVLSTIRGTFEFQGQKCSAASRLYLPESKSEEFLSDMFGILQSQNVVPMNTSASPISGGNLRGFMGPVIHEQSFDKLVKVIEDAKKDPELEILYGGQYDKSQGWFVGPTVIKAKRPDHPYMSTEFFGPILTVYEYPDTEFNEICDIIDNTSQYALTGAIFAKDRKAIEYADEKLKFSAGNFYINDKCTGAVVSQQWFGGARMSGTDDKAGGPNILSRFVSIRNTKENFYELTDFKYPSNYE
On to B2, for which the “stoichiometry N” value in series [2] came out at 2.
